According to article doi:10.1101/2025.05.02.651952 (bioRxiv, 2025):
Residue numbers refer to the chain shown, from its start.

B1: Sis1-WT (natural protein)
chain: MVKETKLYDLLGVSPSANEQELKKGYRKAALKYHPDKPTGDTEKFKEISEAFEILNDPQKREIYDQYGLEAARSGGPSFGPGGPGGAGGAGGFPGGAGGFSGGHAFSNEDAFNIFSQFFGGSSPFGGADDSGFSFSSYPSGGGAGMGGMPGGMGGMHGGMGGMPGGFRSASSSPTYPEEETVQVNLPVSLEDLFVGKKKSFKIGRKGPHGASEKTQIDIQLKPGWKAGTKITYKNQGDYNPQTGRRKTLQFVIQEKSHPNFKRDGDDLIYTLPLSFKESLLGFSKTIQTIDGRTLPLSRVQPVQPSQTSTYPGQGMPTPKNPSQRGNLIVKYKVDYPISLNDAQKRAIDENF
B2: Sis1-[change] (natural protein)
chain: B1 chain with S49V
B3: Sis1-[change] (natural protein)
chain: B1 chain with N56L
B4: Sis1-[change] (natural protein)
chain: B1 chain with E53A
B5: Sis1-[change] (natural protein)
chain: B1 chain with E53K

These binders were tested against Ssa1-WT (yeast, UniProt P10591 1-642) (assay: ELISA).
Ssa1-WT, sequence (P10591 whole entry): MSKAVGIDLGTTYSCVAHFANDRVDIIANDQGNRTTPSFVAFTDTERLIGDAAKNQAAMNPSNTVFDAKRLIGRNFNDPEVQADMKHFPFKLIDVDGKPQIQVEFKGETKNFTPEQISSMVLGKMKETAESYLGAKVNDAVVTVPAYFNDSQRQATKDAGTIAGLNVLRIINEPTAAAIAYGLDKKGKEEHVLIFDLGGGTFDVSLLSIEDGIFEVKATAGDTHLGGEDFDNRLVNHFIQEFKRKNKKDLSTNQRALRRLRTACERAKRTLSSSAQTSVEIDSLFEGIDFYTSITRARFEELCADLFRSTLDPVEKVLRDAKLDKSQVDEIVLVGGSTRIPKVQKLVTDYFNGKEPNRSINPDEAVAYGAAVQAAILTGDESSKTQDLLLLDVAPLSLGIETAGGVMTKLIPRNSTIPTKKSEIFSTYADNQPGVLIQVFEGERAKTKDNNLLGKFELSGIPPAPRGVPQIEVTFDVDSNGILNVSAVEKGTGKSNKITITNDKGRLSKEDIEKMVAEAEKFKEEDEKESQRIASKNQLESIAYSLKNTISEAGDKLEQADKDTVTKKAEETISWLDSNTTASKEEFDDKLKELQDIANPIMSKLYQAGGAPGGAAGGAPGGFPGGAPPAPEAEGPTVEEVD
B1: binds.
B2: binds.
B3: binds.
B4: binds.
B5: binds.

These binders were tested against firefly luciferase (denatured) (firefly, UniProt P08659 1-550 = luciferase) (assay: ELISA).
firefly luciferase (denatured), sequence (P08659 whole entry): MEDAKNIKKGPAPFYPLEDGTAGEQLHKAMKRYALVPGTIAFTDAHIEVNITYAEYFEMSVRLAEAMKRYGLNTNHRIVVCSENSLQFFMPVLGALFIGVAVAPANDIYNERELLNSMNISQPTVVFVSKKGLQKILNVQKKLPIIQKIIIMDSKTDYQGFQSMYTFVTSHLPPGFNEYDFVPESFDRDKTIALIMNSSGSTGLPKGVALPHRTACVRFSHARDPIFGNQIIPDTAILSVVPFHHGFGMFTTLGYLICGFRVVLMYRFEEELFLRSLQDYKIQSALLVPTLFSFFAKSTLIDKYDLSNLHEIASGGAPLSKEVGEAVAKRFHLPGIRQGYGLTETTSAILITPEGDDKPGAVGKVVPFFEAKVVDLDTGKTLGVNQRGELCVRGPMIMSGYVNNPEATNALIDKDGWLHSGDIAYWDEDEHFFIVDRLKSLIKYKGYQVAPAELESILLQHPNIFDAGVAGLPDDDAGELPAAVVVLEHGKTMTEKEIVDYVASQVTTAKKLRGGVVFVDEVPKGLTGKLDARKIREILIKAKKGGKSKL
B1: binds.
B2: binds.
B3: binds.
B4: binds.
B5: binds.
